# Experimental data from patent US8128802B2, “Analysis apparatus and analysis method for glycosylated hemoglobin” (OJI Paper Co., Ltd, priority 2005, dated 2012).
# Tested on: human hemoglobin
# Assay: Proteolysis of human hemoglobin by proteases, fructosyl amino acid detected (Comparative Example 3)
# Format: biochemical
# Details: 1 mg/mL protease, 37° C. for 30 minutes; assay apparatus 2
# Protocol: FIG. 2 was the flow type assay apparatus for fructosyl amino acid with the dialysis module. The buffer B was pumped out from the buffer tank (24) using the pump (25), and a 100 μL portion of the sample was injected using the valve (4). The protease-immobilized enzyme column (14), the second immobilized enzyme column (19), the electrode for hydrogen peroxide (20) and the flow type calorimeter (16) were not disposed. The fructosyl amino acid oxidase-immobilized column was placed in the first immobilized enzyme column (17). The injected sample transferred with the flowing buffer B, was carried to the dialysis module (27) in the incubator (13), and only the components with low molecular weight in the sample were permeated through the regenerated cellulose membrane with the membrane thickness of 20 μm and molecular weight cut off of 12000 to 14000 to a detection system (17, 18) of the fructosyl amino acid. Since the buffer A was pumped out from the buffer tank (1) by the pump (2), the components with low molecular weight in the sample dialyzed by the dialysis module passed through the fructosyl amino acid oxidase-immobilized column (17) and the electrode for hydrogen peroxide (18), and hydrogen peroxide produced from the fructosyl amino acid in the sample was detected. […]
molecule,measurement,value
"Proteinase K: protease from Tritirachium album, Sigma-Aldrich Co. (protein, UniProt P06873 106-384, looked up) Proteinase K: AAQTNAPWGLARISSTSPGTSTYYYDESAGQGSCVYVIDTGIEASHPEFEGRAQMVKTYYYSSRDGNGHGTHCAGTVGSRTYGVAKKTQLFGVKVLDDNGSGQYSTIIAGMDFVASDKNNRNCPKGVVASLSLGGGYSSSVNSAAARLQSSGVMVAVAAGNNNADARNYSPASEPSVCTVGASDRYDRRSSFSNYGSVLDIFGPGTSILSTWIGGSTRSISGTSMATPHVAGLAAYLMTLGKTTAASACRYIADTANKGDLSNIPFGTVNLLAYNNYQA",Result (detected value of the fructosyl amino acid after proteolysis),C (the detected value of less than 20 pA)
